Consider 19 sequences from the DeepSol protein solubility set.

This series in a line: soluble on expression in E. coli; label from the status in PepcDB or PDB records.
For the sequence “SHMSLTPDQIVAALQERGWQAEIVTEFSLLNEMVDVDPQGILKCVDGRGSDNTQFCGPKMPGGIYAIAHNRGVTTLEGLKQITKEVASKGHVPSVHGDHSSDMLGCGFFKLWVTGRFDDMGYPRPQFDADQGAKAVENAGGVIEMHHGSHAEKVVYINLVENKTLEPDEDDQRFIVDGWAAGKFGLDVPKFLIAAAATVEMLGGPKKAKIVIP”, the “soluble on expression in E. coli” value is reported as “soluble”. In the case of “SINNGTFDEPIVNDQANNPDEWFIWQAGDYGISGARVSDYGVRDGYAYITIADPGTDTWHIQFNQWIGLYRGKTYTISFKAKADTPRPINVKILQNHDPWTNYFAQTVNLTADWQTFTFTYTHPDDADEVVQISFELGEGTATTIYFDDVTVSPQ” it was “soluble”. In the case of “SKCIPYSVLLKDLEMRNLRELEDLIIEAVYTDIIQGKLDQRNQLLEVDFCIGRDIRKKDINNIVKTLHEWCDGCEAVLLGIEQQVLRANQYKENHNRTQQQVEAEVTNIKKTLKATASSSAQEMEQQLAERECPPHAEQRQPTKKMSKVKGLVSSRH” it was “soluble”; in that of “SKILVFGHQNPDSDAIGSSMAYAYLKRQLGVDAQAVALGNPNEETAFVLDYFGIQAPPVVKSAQAEGAKQVILTDHNEFQQSIADIREVEVVEVVDHHRVANFETANPLYMRLEPVGSASSIVYRLYKENGVAIPKEIAGVMLSGLISDTLLLKSPTTHASDPAVAEDLAKIAGVDLQEYGLAMLKAGTNLASKTAAQLVDIDAKTFELNGSQVRVAQVNTVDINEVLERQNEIEEAIKASQAANGYSDFVLMITDILNSNSEILALGNNTDKVEAAFNFTLKNNHAFLAGAVSRKKQVVPQLTESFNG”, “soluble”; in that of “SKNPEEAAEGKQRIHLRPGSLRGAAPAKLHLLPCDVLVSRPAPVDRFFTPAVRHDADGLQASFRGRGLRGEEVAVPPGFAGFVMVTEEKGEGLIGKLNFSGDAEDKADEAQEPLERDFDRLIGATGSFSHFTLWGLETVPGPDAKVHRALGWPSLAAAIHAQVPED”, “soluble”. In the case of “SKTENEEDVKPPESCHAMQLLFKSLEASERAKVEEELKKTKENEFTQRNEHHALRDITHGKVNNYSFGTRQARKLFPHYHPPTWLGNLYLPLRGMPHTGPGCYAAATDWNGLAYNLSKVPTSTKGYAIGARTAVRFKPISKDVTPYPGMYQKVDTLSEKHKKSFAPFNILMPRFRSAAKGDSYPGPGTYNPEMKSVPKVTWPMKFGSPDWSQVPCLEKRTLKAELSADKDFRKHRSRVAYFSLYYQ” it was “soluble”; in that of “SKVLLVFDFDNTIIDDNSDTWIIQCAPDKKLPIELQDSYQKGLWTEFMGRVFKYLRDEGVKEEELKRAVTSLPFTSGMIELLSFLRMNKDRFDCIIISDSNSIFIDWVLEAAAFHDVFDTVFTNPASFDSTGRLTVRNCHTHACTRCPKNLCKNTVLGEFIDKQLQKGVRYTRIVYIGDGGNDVCPVTFLKKNDVAMPREGYTLHRTLDKMSQNLEPMASSIVVWSSGMEIISHLQFLIQM”, “soluble”. As for “SLASELHQTQVDLDGLLEVLGRNLYSTPAVAIRELIQNAHDACVRSRLETGRDGDFSIRIQADSHRNQIVITDNGSGLTYEEVLKYLATIGSGYTRVLRDSSHNEDMVGYFGLGFLSAYVVAEKVEVWTTSYQTPEQTWYFSTAGGKKFAISATAPAQVGTTVKLHLREEFYHLAESDLLQGLIERYCCLLRVPIFLNNDDVQVNNLVAPWRLDAATSELQRKKRRLEFAAIFEGAFEPLCAIPIPENNPWSLKGLLWVQDRGGYATSDYRNISVFVRSMFITGECRELLPLWAGFAGGVVESVALSPTASREDIQKNERFYEIRDFLAETLIEGLRTIAANESSVWRRILSRHNQTLLGAALSDDRLFEVMQNDLKIPTTIGDVTLPAYLKQSGGVIYIRNEDKNSQEELLFRAQMKPLVSGYLYAASGFCQKYAHWNHLKAHILGSGDGETKLFTEETVDKAIHDKLAALLLRKNEALSCARFEPAHVPLLVIHDQDVALKKRIERDEADKRIGSAALSLARLHTQAISAEIERRLYVNLNSPLIAAMIDGTQEAAGHLAVAVRAYMESLTHQVDDSDSNFSDELKRFSDALLAITKGEEG”, the “soluble on expression in E. coli” value was “soluble”. Consider “SLENENQLTHQFPTLSRWNPMFISDVHKISFHPHLQRYIGFWMGFPIRWIQIVGYIAAIDIYEGKHVLTVDDCSGMVLRVVFIIQDDFSMSKRAISMSPGNVVCVFGKINSFRSEVELIAQSFEELRDPNDEWKAWQKRMRYKKNLTKISKNHHSIIRT”, for which the “soluble on expression in E. coli” value is “soluble”. With “SLGELFAVFNEKLTIPEQEALMFLYAYMPTGDVTDYTGDYYLENVRLSDQARREMPWGKEIPDDVFRHFVLPIRVNNENLDDSRRVFYNELKDRVKNLSLHDAVLEVNHWCHEKVIYTPSDARTSAPLASVKTAYGRCGEESTFTVAALRSVGIPARQVYTPRWAHTDDNHAWVEAWVDGKWYFFGACEPEPVLNLGWFNAPASRGMLMHTKVFGRYTGQEEIMYETPNYTEINVIDNYAPTAKGSVLVTDAEGQPVADATVEFKVYNYAEFYTVATKHTDRSGHASLTAGKGDMLVWASKDGRFGYSKLSFGKDNELKITLDKNASETYSLPLDIVPPAEGANLPEVTPEQRTENDRRMAQEDSIRNAYVATFITEEQARTFAKENKLDETETVRLLIASRGNHQTLTDFLSDAVKADKAGQAISLLKVVSAKDLRDVSPEVLNDHLNNSGLPASEDFCSNVLNPRVANEMITPYKAFFRKEIPASEAEAFRKNPQALVEWCKKEITINNELNSQRIPMSPMGVWKARVADEKSRNIFFVSMARSLGIPAWIDEVTGKIQYRTFNDNNLKNGKVYDVDFEAAQQTQAPTGTLVARYRPIPSLSDPKYYSHFTLSKFRNGTFQLLNYDEGDVDMGGGATWSNLLKNGARLDTGYYMMVTGTRMASGAVLANVTFFTIEEGKTTTVDLVMRESKDQVQVIGNFNSESTYLPIGTSEPQSILQTCGRGYYVVAVLGAGQEPTNHALRDIAALSGEFEKWGRKMVLLFPSEEQYKKFRPSEFPGLPSTITYGIDVDGAIQKQIAESMKLPNSTILPMFIIGDTFNRVVFVSQGYTIGLGEQLMKVIHGEG” the entry was “soluble”; with “SLIENSHVKKDDIWPSGGQMTVKDLTAKYTEGGNAILENISFSISPGQRVGLLGRTGSGKSTLLSAFLRLLNTEGEIQIDGVSWDSITLEQWRKAFGVIPQKVFIFSGTFRKNLDPYEQWSDQEIWKVADEVGLRSVIEQFPGKLDFVLVDGGCVLSHGHKQLMCLARSVLSKAKILLLDEPSAHLDPVTYQIIRRTLKQAFADCTVILCEARIEAMLECDQFLVIEENKVRQYDSILELYHYPADRFVAGFIGSPKMNFLPVKVTATAIDQVQVELPMPNRQQVWLPVESRDVQVGANMSLGIRPEHLLPSDIADVILEGEVQVVEQLGNETQIHIQIPSIRQNLVYRQNRVVLVEEGATFAIGLPPERCHLFREDGTACRRLHKEPGV”, “soluble”. With “SLIRMIRKFKVKGLRSPSLLIDMILNDTEEGILVVETDGEEQIKDIEKLLKKYNLKYEVDGNVVKIYVGEIKADKTINVVGATCPGPIMMVSDMLSKMKNGEILEIICGKNSLTDLTEGLKGMGNEIIKVEDKGDGTYRILVKKGEKKEEKAAVTKIDELFIINTTGTGNAEKAYATFMMADVALKMNLKPTIFLMMDGASLALKGECDRVKHPAFPKLGDLVRDILSKGVKIYVCELSAEFRGINEKNLEEGFEIAGAPTFLNYLSKPNVRPVWL” the entry was “soluble”; with “SLISYCSDSGDENISCTKKMVVTVTVEGEQLPGEESLLFLNSATDMTVNNGTSVQFSPLRITTSRSAVRYRYPLFYVQNYNAKPYEATVKGSLLNQCNADFNADTATCGLAYDAAGKAIPYSQGFCCDCSMCQTLGLCQPDARANAACNVFGKYTTASCLRFAQRWYSGYTIGGYMTWYTVNLTLSRNVSDSGGAGAAEKVVMRLSPSNNGEVAGEGWDVMARIVGTYAPVDQPLDLTSRMLFAPAIPPNDARVQAGAAEWLLLPTNLVTLDGRECDKVGVSYEAFASQGNKCNLRPGSCLSSQLEDYRTADLQRIAAGNKGQYMATSFGDFNLENDAATSPYISYLAASPAATMISITVSADDLEYTVGLASGKIISTDMNKPTLQAGTADGVMTVMVRNTAAVTGRLVVGTLNCSDGVF”, “not soluble”; with “SLLIVYNEYLIHIYHSFQWAELQCETDSCIKMLLVADPQILGNTFDTKLYWPLANFDSDRHLKRTYKSVVQHAAPDVICFLGDLMDEGSVANDDQFAAYFTRFVNIFSQPTANTIMFYIPGDNDIGGEGLETIKSDRVLRFKQYFNEQDELTIDPMLRILNVNRISMTLPMNSAPSTEEPQPYTVLLSHMPILRWSDPFTYKVIDDFQPNVIFSAHEHKSRHVKTHRNQLTQGAPFEPLNTERSNRHEVVEFDLNYLKDTRELLEFIVPTCSYRMGEMKIGYGYAMFDGDKLRYTVLWTSQRFYQ”, “soluble”. With “SLNEQELQDLQKMVGVAVNALGDIKAKDISVLETQDKTSLFARMIIASGDSTRQVKALANNVAVDLKEAGFEILSTEGDSGEWTLVDAGDLVVHVMLPAVRDFYDIDTLWGGEKPSFHAGMQKPWHAAD” the entry was “soluble”. For the sequence “SLNKNARLQQENHFLSLQRSRYDNLCAAIEETRQVRHDIRHHYLQLAALAEKGDMEKIKEYLSSADRKMPSFDFHFCDNQAVDSILGYYSNHAKQEGIPFLAQIDIPDNFLGDEMDICLVLSNLLENAIEASLKTEDSRRKIVIKMYLHHTHILLIQAENNFDAKILEKNGVFQSTKHSGNGIGIQSIRHITERNGGASNFTYKDGEFTAKIMLRI”, the “soluble on expression in E. coli” value is “not soluble”. Turning to “SLNPLDSFKSQVEANVTGLGADKDIQALSRIWSRETNRNGYTYNYSWLGRPIIQYPQDIMAMQELIWSIQPDLIIETGIAHGGSLIFSASMLELNAISGGPQDAEVLGIDIDIRQHNREAIEAHPMVKRISMIQGSSIAPEIIEQVKAKAEGKQKILVCLDSNHTHDHVLAELEAYAPLTSVGSYCVVFDTVVEDLPDEMFGDRPWGVGNNPKTAVWEYLKTHPEFEIDKSIQHKLLITVAPDGYLKRLG”, the “soluble on expression in E. coli” value is on record as “soluble”. As for “SLNRESERDVIKVGIIGDFTGICSELERGKVAAYKLAADEINRMGGINEKKVELLFRDDRSLSELTREAVKELTEEERVDVLMGSTLSPSREIMQHYADQTKTLYLDTQQTEGGVSSHYTFCLSAMPEQQMTQMLAYLLQKYGRKCYVVAADYNYGILSAEWVKYLVHQLGGEIVGVEYLDDRITDFNPLIDRILQLEADILFSICVFPNHDAFYLQWHQRGLNHIPNASTMVAAEAYQNVRFAPPVLENMYVMASFIEELNTPAAQRFVKKFRAAYDHREVPYMSMDTETVYTAMYVYKRAVELAGTTDTEEVITALESGAVYVDGPGGRVTVRGEDHHTSRSLSCFRINNQHRAEELFCTNPIHSDYIESMIEQTMGVKGGIKAMGANAPSTQYNMLLNKFRWHPSEG”, the “soluble on expression in E. coli” value was “soluble”. In the case of “SLPPLNSLISQFEGRVYDQIINFNWHSKPENLKVIIIDIDEKSLEQEGRWPWPRSKIAELLNKLQENGVVTVGFDIVMSEAETNYALGLIEKLSQFSGKMTTDQKQLIATLNSVANQVDNDQTLVNALGKNNAILGFFFHNSEGIRKGSLPPPLRDTDSNPLLASKLSVYQFTNFNGNLAAFTAAATSGGFVTNLPDKDGVVRHALLLANYKNNLYPSLSLAIAMNYLLTDKVNLKKYNNELTGIELDGLQIPTNRKGQILIPFWGGPGTLNYYSATDILNNQFNPDELAGSIALVGSSITLLSDLHHTPVAQLFPGVEIVGNIVKGLVEQKIPREFDWESLQG” it was “not soluble”.
